Laboratory results as given in patent publication US20230391872A1 (ANAPTYSBIO, published 2023).

Key:
[1] = target: T1, cynomolgus monkey BTLA on cells (stably transfected 293c18 clone 1G5); cynomolgus peripheral blood T and B … (cynomolgus monkey, UniProt A0A2K5W7M7 31-289); experiment: flow cytometry on cynomolgus monkey BTLA 293c18 cells, anti-human kappa-PE detection; both lots (APE10840.03 and APE10840.04); cynomolgus BTLA 293c18 cells
T1 construct: whole, on cells; also called cynomolgus monkey BTLA 293c18 cells
T1 sequence: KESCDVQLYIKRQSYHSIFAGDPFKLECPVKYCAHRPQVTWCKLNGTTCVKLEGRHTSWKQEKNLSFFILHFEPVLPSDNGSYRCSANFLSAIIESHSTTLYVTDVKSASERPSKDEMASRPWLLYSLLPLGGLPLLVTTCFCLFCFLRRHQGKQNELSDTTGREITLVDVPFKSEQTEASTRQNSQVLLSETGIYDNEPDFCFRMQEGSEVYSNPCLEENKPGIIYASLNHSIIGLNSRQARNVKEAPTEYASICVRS
Description: 293c18 cell clone 1E4 stably expressing human BTLA construct or clone 1G5 stably expressing cynomolgus monkey BTLA were harvested with Accutase solution (Millipore Sigma/Sigma-Aldrich) and washed once with Phosphate-Buffered Saline, 1% BSA. 293c18 cynomolgus monkey BTLA cells were loaded with the lipophilic carbocyanine dye, DiD (2 μM, 1,1′-dioctadecyl-3,3,3′,3′-tetramenthylindodicarbocyanine; ThermoFisher Scientific) by rocking gently for 10 minutes at room temperature. DiD-stained cells were washed in PBS, 1% BSA and equal amounts of human BTLA 293c18 cells and cynomolgus monkey BTLA 293c18-DiD-stained cells were mixed. Cells (2×10⁵ total cells/sample) were incubated with the indicated concentrations of purified 6G3 IgG4 (two production lots, APE10840.03 and APE10840.04 (H Chain SEQ ID NO: 144, L Chain SEQ ID NO: 174)) or human IgG4 isotype control antibody specific for hen egg lysozyme with gentle shaking for 10 minutes at 4° C. in FACS buffer (PBS, 1% BSA, 0.02% sodium azide). […] Cells were washed and resuspended in FACS buffer and analyzed for fluorescence on a BD FACSArray (BD Biosciences). DiD stained cells expressing cynomolgus monkey BTLA (FIG. 3) were analyzed for median fluorescence intensity (MFI) separately from cells expressing human BTLA (FIG. 3). […]

[2] = target: T2, cynomolgus monkey BTLA ECD-his (monomeric cynomolgus monkey BTLA-his) (cynomolgus monkey, UniProt A0A2K5W7M7 31-157); experiment: SPR, Biacore T200, antibody captured on anti-human IgG, monomeric cynomolgus monkey BTLA-his as analyte, 25 °C, 1:1 model; 6G3 IgG4 (APE10840.05) captured on the chip; cynomolgus BTLA-his analyte
T2 construct: extracellular domain; also called cynomolgus monkey BTLA extracellular domain
T2 sequence: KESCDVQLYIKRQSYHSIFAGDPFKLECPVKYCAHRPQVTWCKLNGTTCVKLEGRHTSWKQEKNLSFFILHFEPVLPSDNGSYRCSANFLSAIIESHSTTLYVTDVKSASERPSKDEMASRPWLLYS
Description: Surface plasmon resonance (SPR) analyses were carried out using a Biacore T200 (GE Healthcare Life Sciences). Kinetic constants were determined using a 1:1 binding model in the Biacore T200 Evaluation Software to calculate on- and off-rates (kₐ and kd, respectively), and dissociation constants as a measure of overall affinity (KD). Anti-human IgG (GE Healthcare Life Sciences) was immobilized on a CMS chip using EDC-activated amine coupling chemistry (420 seconds contact at a flow rate of 10 μl/min). Antibodies (APE10585.04 6G3 IgG1 and APE10840.05 6G3 IgG4), each at 0.5 μg/m1) were captured in a 60 second contact with the flow cell using a flow rate of 10 μl/min. Monomeric human BTLA-his or cynomolgus monkey BTLA-his at 60 nM, 20 nM, 6.7 nM and 2.2 nM concentrations was flowed over captured antibody (480 seconds association, 1800 seconds dissociation). Runs were at 25° C. and used buffer containing 10 mM HEPES, pH 7.6, 150 mM NaCl, 3 mM EDTA, 0.05% polysorbate 20 (HBS-EP+, pH 7.6; Teknova) for the mobile phase and all dilutions. At the end of each cycle, bound antigen was removed by regeneration with two successive exposures (60 seconds and 90 seconds) to 3 M MgCl2 (30 μl/min). Sensorgrams and binding constants corresponding to the experiment are shown in FIG. 1 (human BTLA) and FIG. 1 (cynomolgus monkey BTLA). […]

EC50 [1]: ~2.3 nM
Kd [2]: ~11 nM
B1: 6G3 IgG4 anti-BTLA antibody (APE10840 / APE12839 / APE13308) (antibody, V domains shown)
VH: QVQLVQSGAEVKKPGSSVKVSCKASGYVFSTSWMNWVRQAPGQGLEWMGRIYPGDADTNYVGKFKGRVTITADKSTTTAYMELSSLRSEDTAVYFCAKSGTFNFGNYRWYFDVWGKGTTVTVSS
VL: AIQLTQSPSSLSASVGDRVTITCRVSENIYSHLAWYQQKPGKAPKLLIYAATNLALGVPSRFSGSGSGTDYTLTISSLQPEDFATYYCQLFWGPPLTFGGGTKVEIKR
notes: Humanized antibody from a mouse hybridoma, tested as human IgG4 (detected with anti-human kappa); Some assays used labelled lots (DyLight 650, AF647, biotin, DyL488); also called 6G3 antibody; APE10840.03
